Reference: patent US20240309103A1 (Regeneron, published 2024)

Assays:
[1] = biological target: T1, mouse NPR1 extracellular domain expressed with a C-terminal mouse IgG2a (mNPR1-mFc) (mouse); assay: SPR, Tables 21 to 26
T1 chain: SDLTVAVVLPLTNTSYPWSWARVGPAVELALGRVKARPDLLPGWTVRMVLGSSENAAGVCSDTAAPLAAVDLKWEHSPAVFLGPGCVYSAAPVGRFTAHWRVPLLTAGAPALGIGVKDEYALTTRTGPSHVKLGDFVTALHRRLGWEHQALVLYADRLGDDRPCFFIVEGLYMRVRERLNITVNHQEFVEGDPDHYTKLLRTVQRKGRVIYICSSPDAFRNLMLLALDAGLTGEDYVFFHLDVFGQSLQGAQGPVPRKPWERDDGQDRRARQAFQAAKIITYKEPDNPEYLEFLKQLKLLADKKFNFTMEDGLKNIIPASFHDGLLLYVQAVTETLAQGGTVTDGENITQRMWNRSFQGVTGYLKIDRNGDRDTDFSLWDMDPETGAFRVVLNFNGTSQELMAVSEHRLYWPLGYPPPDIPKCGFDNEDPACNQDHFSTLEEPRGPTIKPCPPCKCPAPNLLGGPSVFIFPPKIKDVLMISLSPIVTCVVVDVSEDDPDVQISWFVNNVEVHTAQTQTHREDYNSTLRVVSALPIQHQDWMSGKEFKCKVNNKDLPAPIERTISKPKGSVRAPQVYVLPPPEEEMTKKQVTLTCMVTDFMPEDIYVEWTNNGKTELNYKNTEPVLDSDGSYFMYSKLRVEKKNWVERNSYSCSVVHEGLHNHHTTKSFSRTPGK
Protocol: (§1) Equilibrium dissociation constant (KD) for different NPR1 reagents binding to purified anti-NPR1 monoclonal antibodies (mAbs) were determined using a real-time surface plasmon resonance based Biacore 4000 biosensor. All binding studies were performed in 10 mM HEPES, 150 mM NaCl, 3 mM EDTA, and 0.05% v/v Surfactant Tween-20, pH 7.4 (HBS-ET) running buffer at 25° C. and 37° C. The Biacore CM5 sensor chip surface was first derivatized by amine coupling with either mouse anti-human Fc specific mAb (GE Healthcare, #BR100839) or goat anti-human Fcy specific polyclonal antibody (Jackson ImmunoResearch Laboratories, #BR-1008-39) to capture anti-NPR1 mAbs.

[2] = biological target: T2, human NPR1 extracellular domain expressed with a C-terminal myc-myc-hexahistidine (hNPR1-MMH) (human, UniProt P16066 33-473); assay: SPR, mAb captured, 25 C
T2 construct: also called hNPR.mmh; monomeric human NPR1
Method in brief: (§2)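 Capture surface: anti-human Fc mAb or anti-human Fcγ pAb amine-coupled to CM5; mAbs captured, NPR1 reagent as analyte.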

[3] = biological target: T3, monkey NPR1 extracellular domain expressed with a C-terminal myc-myc-hexahistidine (mfNPR1-MMH) (monkey, UniProt P16066 33-473 (human entry)); assay: SPR, mAb captured, 25 C
T3 construct: also called monomeric monkey NPR1
T3 chain: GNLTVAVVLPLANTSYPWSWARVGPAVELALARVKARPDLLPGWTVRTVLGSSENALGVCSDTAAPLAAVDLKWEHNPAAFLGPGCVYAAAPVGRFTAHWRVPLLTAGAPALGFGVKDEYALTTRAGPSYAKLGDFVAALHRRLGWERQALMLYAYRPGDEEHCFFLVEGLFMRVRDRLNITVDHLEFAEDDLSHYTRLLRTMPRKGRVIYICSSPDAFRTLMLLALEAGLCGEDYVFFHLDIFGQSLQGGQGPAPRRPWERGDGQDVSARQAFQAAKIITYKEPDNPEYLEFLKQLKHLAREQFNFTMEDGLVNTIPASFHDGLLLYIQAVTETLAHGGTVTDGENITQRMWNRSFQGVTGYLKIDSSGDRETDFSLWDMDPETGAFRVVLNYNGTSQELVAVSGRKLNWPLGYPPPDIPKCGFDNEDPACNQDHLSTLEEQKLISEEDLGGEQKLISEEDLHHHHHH
Method in brief: as §2

[4] = biological target: T4, mouse NPR1 extracellular domain expressed with a C-terminal myc-myc-hexahistidine (mNPR1-MMH) (mouse, UniProt P18293 29-469); assay: SPR, mAb captured, 25 C
Method in brief: as §2

[5] = biological target: T2, human NPR1 extracellular domain …; assay: SPR, mAb captured, 37 C
Method in brief: as §2

[6] = biological target: T3, monkey NPR1 extracellular domain …; assay: SPR, mAb captured, 37 C
Method in brief: as §2

[7] = biological target: T4, mouse NPR1 extracellular domain …; assay: SPR, mAb captured, 37 C
Method in brief: as §2

[8] = biological target: T5, human NPR1 extracellular domain expressed with a C-terminal mouse IgG2a (hNPR1-mFc) (human); assay: SPR, mAb captured, 25 C; 25 C
T5 construct: also called hNPR1-Fc; human NPR1 dimer
T5 chain: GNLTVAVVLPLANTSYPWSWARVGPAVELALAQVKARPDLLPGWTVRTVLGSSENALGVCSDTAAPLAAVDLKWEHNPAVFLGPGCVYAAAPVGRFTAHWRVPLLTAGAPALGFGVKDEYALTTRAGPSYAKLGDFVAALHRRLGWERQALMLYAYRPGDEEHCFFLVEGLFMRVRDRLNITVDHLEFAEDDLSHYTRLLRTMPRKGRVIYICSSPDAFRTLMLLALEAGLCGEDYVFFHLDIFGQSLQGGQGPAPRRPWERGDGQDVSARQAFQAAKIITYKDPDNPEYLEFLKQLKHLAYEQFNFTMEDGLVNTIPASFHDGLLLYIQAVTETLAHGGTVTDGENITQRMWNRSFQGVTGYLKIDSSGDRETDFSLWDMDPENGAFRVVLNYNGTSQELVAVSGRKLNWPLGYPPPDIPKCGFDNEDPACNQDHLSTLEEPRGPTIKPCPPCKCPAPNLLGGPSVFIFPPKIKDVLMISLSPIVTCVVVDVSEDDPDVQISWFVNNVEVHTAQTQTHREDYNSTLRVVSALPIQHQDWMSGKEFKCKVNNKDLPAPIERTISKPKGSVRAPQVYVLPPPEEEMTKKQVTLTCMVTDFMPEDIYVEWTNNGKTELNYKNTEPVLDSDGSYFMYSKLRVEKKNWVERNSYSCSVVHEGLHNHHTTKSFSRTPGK
Protocol: as §1

[9] = biological target: T5, human NPR1 extracellular domain …; assay: SPR, mAb captured, 25 C
Method in brief: as §2

[10] = biological target: T5, human NPR1 extracellular domain …; assay: SPR, mAb captured, 37 C
Method in brief: as §2

B1: mAb25502 (antibody, V domains shown)
VH: QLQLQESGPGLVKPSETLSLTCTVSGGSISSSSYYWGWIRQPPGKGLEWIGSIYYSGSPYYIPSLKSRVTISVDTSKNQFSLKLSSVTAADTAMYYCARQGRGIARAGPFDYWGQGTLVTVSS
VL: DIQMTQSPSSLSASVGDRVTITCRASQGISNYLAWYQEKPGKVPKLLIYAASTLQSGVPSRFSGSGSGTDFTLTITSLQSEDVATYYCQKYNSAPPWTFGQGTKVEIK
[1]
  binding result: no binding
[2]
  100 nM Ag Bound (RU): 2 RU
[3]
  100 nM Ag Bound (RU): 3 RU
  binding result: no binding (tested: 100 nM)
[4]
  100 nM Ag Bound (RU): 0 RU
  binding result: no binding (tested: 100 nM)
[5]
  100 nM Ag Bound (RU): 4 RU
  binding result: no binding (tested: 100 nM)
[6]
  100 nM Ag Bound (RU): 6 RU
[7]
  100 nM Ag Bound (RU): 0 RU
[8]
  Kd: 994 pM
  koff: 8.74e-05 s⁻¹
  kon: 87900 M⁻¹ s⁻¹
  t½: 132 min

B2: mAb25508 (antibody, V domains shown)
VH: EVQLVESGGGVVRPGGSLRLSCAASGFNVDDYGMSWVRQIPGKGLEWISGINWNGGRIYYADSMKGRITISRDNAKNSLYLQMNSLRAEDTALYHCVRDQWLVRGLDYWGQGTLVTVSS
VL: DIQMTQSPSSLSASVGDRVTITCRASQGIYNYLAWFQQKPGKAPKSLIYAASSLQSGVPSKFSGSGSGTDFTLTISSLQPEDFATYYCQQYNTYPYTFGQGTKLEIK
[1]
  binding result: no binding
[2]
  100 nM Ag Bound (RU): 192 RU
  Kd: 309 pM
  koff: 0.000134 s⁻¹
  kon: 432000 M⁻¹ s⁻¹
  t½: 86.5 min
[3]
  100 nM Ag Bound (RU): 213 RU
  Kd: 187 pM
  koff: 0.000132 s⁻¹
  kon: 706000 M⁻¹ s⁻¹
  t½: 87.5 min
[4]
  100 nM Ag Bound (RU): 0 RU
  binding result: no binding (tested: 100 nM)
[9]
  100 nM Ag Bound (RU): 211 RU
  Kd: 86.8 pM
  koff: 6.85e-05 s⁻¹
  kon: 789000 M⁻¹ s⁻¹
  t½: 169 min
[5]
  100 nM Ag Bound (RU): 252 RU
  Kd: 490 pM
  koff: 0.000222 s⁻¹
  kon: 453000 M⁻¹ s⁻¹
  t½: 52.1 min
[6]
  100 nM Ag Bound (RU): 275 RU
  Kd: 349 pM
  koff: 0.000273 s⁻¹
  kon: 782000 M⁻¹ s⁻¹
  t½: 42.3 min
[7]
  100 nM Ag Bound (RU): 0 RU
[10]
  100 nM Ag Bound (RU): 242 RU
  Kd: 121 pM
  koff: 0.000101 s⁻¹
  kon: 838000 M⁻¹ s⁻¹
  t½: 114 min

B3: mAb25498 (antibody, V domains shown)
VH: QVQLVESGGGVVQPGRSLRLSCVASGFTFSSYGMVWVRQTPGKGLEWVAVIWHDGTNNYYADSVKGRFTISRDNSKNTLYLQMNSLRAEDTAVYYCAREPWLVRGYYYYAMDVWGQGTTVTVSS
VL: not shown
[1]
  binding result: no binding
[2]
  100 nM Ag Bound (RU): 68 RU
  Kd: 81000 pM
  koff: 0.00182 s⁻¹
  kon: 22500 M⁻¹ s⁻¹
  t½: 6.3 min
[3]
  100 nM Ag Bound (RU): 114 RU
  Kd: 27200 pM
  koff: 0.00158 s⁻¹
  kon: 57900 M⁻¹ s⁻¹
  t½: 7.3 min
[4]
  100 nM Ag Bound (RU): 0 RU
  binding result: no binding (tested: 100 nM)
[9]
  100 nM Ag Bound (RU): 94 RU
  Kd: 3650 pM
  koff: 0.000255 s⁻¹
  kon: 69800 M⁻¹ s⁻¹
  t½: 45.3 min
[5]
  100 nM Ag Bound (RU): 97 RU
  Kd: 184000 pM
  koff: 0.00415 s⁻¹
  kon: 22500 M⁻¹ s⁻¹
  t½: 2.8 min
[6]
  100 nM Ag Bound (RU): 151 RU
  Kd: 52100 pM
  koff: 0.00369 s⁻¹
  kon: 70700 M⁻¹ s⁻¹
  t½: 3.1 min
[7]
  100 nM Ag Bound (RU): 0 RU
[10]
  100 nM Ag Bound (RU): 129 RU
  Kd: 6410 pM
  koff: 0.000568 s⁻¹
  kon: 88600 M⁻¹ s⁻¹
  t½: 20.3 min

B4: mAb22809 (antibody, V domains shown)
VH: QLQLRESGPGLVKPSETLSLTCTVSGGSINDNSFFWDWIRQTPGRGLEWIGNIFFDGNTYYTPSLKSRVIISVDMSQNQFSLRLTSVTAADTALYYCARHKRSMTAWGFFDYWGQGTLVTVSS
VL: DIQMTQSPSSLSASVGDRVTITCRASKRINTYLNWYQQKPGKAPKVLIYSASNLQSGVPSRFSGSGSGTDFTLTINSLQPEDFATYFCQQSFSAPPITFGQGTRLEIK
[1]
  binding result: no binding
[2]
  100 nM Ag Bound (RU): 0 RU
[3]
  100 nM Ag Bound (RU): 0 RU
  binding result: no binding (tested: 100 nM)
[4]
  100 nM Ag Bound (RU): 0 RU
  binding result: no binding (tested: 100 nM)
[9]
  100 nM Ag Bound (RU): -2 RU
[5]
  100 nM Ag Bound (RU): -1 RU
[6]
  100 nM Ag Bound (RU): 1 RU
[7]
  100 nM Ag Bound (RU): 0 RU
[10]
  100 nM Ag Bound (RU): -1 RU
